Data reported in patent US20170212130A1.

Legend:
[1] = target: GFP-His6 (eGFP) (Aequorea victoria) [GFP: P42212]; test: label under gel lane; legend: in vitro Kd for GFP by SPR; the asterisk is not explained on the sheet
[2] = target: S. cerevisiae Nup84-GFP (S. cerevisiae) (UniProt P52891); test: time course of Nup84-GFP isolation from yeast with dimer-conjugated magnetic beads, Coomassie band quantification

Substance | Kd [1] [pM] | relative yield of affinity isolation, percent of maximum, after 5 minutes [2] [%] | relative yield of affinity isolation, percent of maximum, after 10 minutes [2] [%]
GFP-Trap nanobody (ChromoTek GmbH) (VHH) | 230 | – | –
LaG16-LaG2 fusion with a flexible glycine-rich linker (G4S) | – | 80 | 90
